Test results: paper PMC12246617, “Cryo-EM structures reveal the PP2A–B55α and Eya3 interaction that can be disrupted by a peptide inhibitor” (The Journal of Biological Chemistry, 2025)
Where a chain is given by its changes, count along the chain named. Names and notes keep the numbering of the source.

T1: His-hB55 (human PP2A regulatory subunit B55α), P63151
T1 chain: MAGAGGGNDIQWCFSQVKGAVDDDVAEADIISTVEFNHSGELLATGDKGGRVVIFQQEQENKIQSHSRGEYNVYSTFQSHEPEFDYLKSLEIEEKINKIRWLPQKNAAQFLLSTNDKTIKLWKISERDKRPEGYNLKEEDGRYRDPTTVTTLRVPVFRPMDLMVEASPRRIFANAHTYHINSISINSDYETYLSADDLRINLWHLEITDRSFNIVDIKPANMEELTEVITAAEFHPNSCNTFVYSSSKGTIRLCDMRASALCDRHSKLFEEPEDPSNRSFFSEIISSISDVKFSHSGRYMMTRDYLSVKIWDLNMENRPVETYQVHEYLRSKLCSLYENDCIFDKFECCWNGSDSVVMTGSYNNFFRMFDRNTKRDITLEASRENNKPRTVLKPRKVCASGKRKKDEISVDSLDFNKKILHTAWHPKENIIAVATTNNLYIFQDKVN

B1: mouse Eya3 (mEya3), wild type, P97480 Y77A (protein)
chain: MEEEQDLPEQPVKKAKMQEPREQTLSQVNNPDASDEKPETSSLASNLSMSEEIMTCTDYIPRSSNDYTSQMYSAKPAAHILSVPVSETTYPGQTQYQTLQQSQPYAVYPQATQTYGLPPFASSTNASLIPTSSAIANIPAAAVASISNQDYPTYTILGQNQYQACYPSSSFGVTGQTNSDAETTTLAATTYQTEKPSAMVPAPATQRLPSDSSASPPLSQTTPNKDADDQARKNMTVKNRGKRKADASSSQDSELERVFLWDLDETIIIFHSLLTGSYAQKYGKDPTVVIGSGLTMEEMIFEVADTHLFFNDLEECDQVHVEDVASDDNGQDLSNYSFSTDGFSGSGGSGSHGSSVGVQGGVDWMRKLAFRYRKVREIYDKHKSNVGGLLSPQRKEALQRLRAEIEVLTDSWLGTALKSLLLIQSRKNCANVLITTTQLVPALAKVLLYGLGEIFPIENIYSATKIGKESCFERIVSRFGKKVTYVVIGDGRDEEIAAKQHNMPFWRITNHGDLVSLHQALELDFL
B2: mouse Eya3 (mEya3), wild type, P97480 H79A (protein)
chain: B1 chain with A77Y, H79A
B3: mouse Eya3 (mEya3), wild type, P97480 K75A (protein)
chain: B1 chain with K75A, A77Y
B4: His-hB55 (human PP2A regulatory subunit B55α) (natural protein)
chain: T1 chain

Assays:
[1] = target: T1, His-hB55 (human PP2A regulatory subunit …); experiment: MST; settings: chain shown with the change;
[2] = target: B55i peptide (computationally engineered inhibitory peptide of B55); experiment: fluorescence polarisation; His-B55 serially diluted in 50 mM Tris pH 8, 100 mM NaCl, 1 mM DTT, incubated with 3 nM FITC-B55i at room temperature for 10 min

Row | Binder | Kd ([1]; parent: 1.04 µM) [µM] | further results
1 | B1 | 4.87 | –
2 | B2 | – | Kd ([1]; parent: 1.04): 9.16 µM
3 | B3 | 4.24 | –
4 | B4 | – | Kd [2]: 0.0673 µM
